Measured values taken from PMC3502260, “Plasmodium serine hydroxymethyltransferase as a potential anti-malarial target: inhibition studies using improved methods for enzyme production and assay” (Malaria Journal, 2012).

Columns and labels:
[1] = substrate: N[C@@H](CO)C(=O)O; test: purified protein; type: biochemical, Plasmodium vivax; conditions: apparent, 0.4 mM THF fixed, 25 °C, 50 mM HEPES pH 7, aerobic
[2] = substrate: Nc1nc2c(c(=O)[nH]1)N[C@@H](CNc1ccc(C(=O)N[C@@H](CCC(=O)O)C(=O)O)cc1)CN2; test: purified protein; type: biochemical, Plasmodium vivax; conditions: apparent, 2 mM L-serine fixed, 25 °C, 50 mM HEPES pH 7, aerobic

B1: PvSHMT (Plasmodium vivax Sal-1) (protein)
chain: MFNNEPLEQIDKELHDILADEEKRQRETINLIASENLTNGAVRECLGNRVSNKYSEGYPKKRYYGGNDFIDKIEELCQKRALEAFNVSDEEWGVNVQPLSGSAANVQALYALVGVKGKIMGMHLCSGGHLTHGFFDEKKKVSITSDMFESKLYKCNSQGYVDLDAVREMALSFKPKVIICGYTSYPRDIDYQQFRQICDEVNAYLFADISHISSFVACNILNNPFLHADVVTTTTHKILRGPRSALIFFNKKRNPGIEQKINSAVFPSFQGGPHNNKIAAVACQLKEVHSPAFKEYTQQVLLNSKALAKALISKQIDLVTNGTDNHLIVVDLRKFSITGSKLQETCNAINVSLNKNTIPSDVDCVSPSGVRIGTPAMTTRGAKEKDMEFIADVLARAIKITVDLQEQYGKKLVDFKKGLPGNAQLQQLKQEVVTWAGALPFP
notes: recombinant, expressed in E. coli BL21(DE3) as in an earlier report; dimer
How did the Km [1] turn out when B1 was run?
Its Km is 190 ± 20 µM.

And the kcat [1]?
Its kcat is 1.26 ± 0.13 s⁻¹.

And the Km [2]?
Its Km is 90 ± 20 µM.

What about the kcat [2] of the same protein?
Its kcat is 1.26 ± 0.13 s⁻¹.
